We go through two molecules from patent publication US12428492B2, “Chimeric antigen receptors that bind to prostate specific membrane antigen” (Albert-Ludwigs-Universitaet Freiburg, priority 2019, dated 2025).

Assay [1] deals with PSMA positive C4-2 and LNCaP tumor cells. Nature of the assay: Antigen-specific activation (CD69) of CAR expressing Jurkat cells by PSMA positive tumor cells. Type of assay: cell-based. How it is done: Panel (C) presents the antigen-specific-activation profile, CAR expressing Jurkat cells were stimulated for 24 h at an 1:1 effector-to-target ratio with either PSMA positive, PD-L1 negative C4-2 tumor cells (PSMA+/PDL1−), or PSMA positive, PD-L1 positive LNCaP tumor cells (PSMA+/PDL1+). As a negative control, CAR cells were co-cultured with PSMA negative DU145 tumor cells (PSMA−). Following 24 h stimulation, cells were harvested and activation profile was assessed by evaluating the percentage of cells that are positive for the activation marker CD69. Statistically significant differences are indicated by ****(P<0.001).
Panel (D) depicts the characterization of employed prostate cancer cell lines. The extent of PSMA target antigen expression (left) and PD-L1 (CD274) expression (right) was assessed on C4-2, LNCaP and DU145 prostate cell lines. For flow cytometric analysis, cells were either stained with 3/F11 1 antibody (anti-PSMA) or an anti-CD274 antibody. UT, untransduced T cells; PD-L1, Programmed cell death ligand 1; PSMA; prostate specific membrane antigen. As shown in panel D (left), both C4-2 and LNCaP tumor cells express the PSMA antigen while the DU145 is negative for the PSMA antigen. […]
The antigen-specific activation of transduced Jurkat T cells was measured by monitoring the expression of the activation marker CD69 upon antigen stimulation FIG. 9C. […]

In assay [2] the target is PSMA-expressing cells (Homo sapiens, UniProt Q04609). The following applies: cited from earlier work.
Chain of PSMA-expressing cells (Q04609 whole entry): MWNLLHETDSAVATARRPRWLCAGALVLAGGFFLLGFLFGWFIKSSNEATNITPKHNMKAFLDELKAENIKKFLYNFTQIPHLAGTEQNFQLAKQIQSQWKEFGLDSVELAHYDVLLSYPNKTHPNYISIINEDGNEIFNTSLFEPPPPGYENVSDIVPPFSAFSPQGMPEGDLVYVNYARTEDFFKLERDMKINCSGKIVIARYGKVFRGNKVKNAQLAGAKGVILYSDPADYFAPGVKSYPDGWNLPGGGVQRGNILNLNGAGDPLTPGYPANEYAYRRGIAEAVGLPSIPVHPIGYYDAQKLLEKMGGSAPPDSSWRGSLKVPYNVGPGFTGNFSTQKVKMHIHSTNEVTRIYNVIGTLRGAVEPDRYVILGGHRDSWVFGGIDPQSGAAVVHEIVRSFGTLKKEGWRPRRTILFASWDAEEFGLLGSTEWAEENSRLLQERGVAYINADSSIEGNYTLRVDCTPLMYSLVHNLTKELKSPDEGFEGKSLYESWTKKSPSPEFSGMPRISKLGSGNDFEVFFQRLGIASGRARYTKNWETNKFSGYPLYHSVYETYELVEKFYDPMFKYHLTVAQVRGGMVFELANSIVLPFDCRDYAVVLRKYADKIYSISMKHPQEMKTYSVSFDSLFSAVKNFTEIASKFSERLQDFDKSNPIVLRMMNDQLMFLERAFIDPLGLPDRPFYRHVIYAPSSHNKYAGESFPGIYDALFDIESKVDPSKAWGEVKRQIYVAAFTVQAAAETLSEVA

B1: A5-based CAR: 2nd generation anti-PSMA CAR: scFv A5, Fc IgG1 hinge, transmembrane domain, CD28 costimulatory domain, CD3ζ; SEQ ID NO:39 (protein)
chain: MDFQVQIFSFLLISASVIMSRDVKLVESGGGLVKPGESLKLSCIASGFTFSDYYMYWVRQTPEKRLEWVAIISDGGYYTYYSDIIKGRFTISRDNAKNNLYLQMSSLKSEDTAMYYCTRGFPLLRHGAMDYWGLGTSVTVSSGGGGSGGGGSGGGGSDIQMTQSPKFMSTSVGDRVSVTCKASQNVDTNVAWYQQKPGQSPKALIYSASYRYSDVPDRFTGSESGTDFTLTISNVQSEDLAEYFCQQYDSYPYTFGGGTKLEIKSDPAEPKSPDKTHTCPPCPAPPVAGPSVFLFPPKPKDTLMIARTPEVTCVVVDVSHEDPEVKFNWYVDGVEVHNAKTKPREEQYNSTYRVVSVLTVLHQDWLNGKEYKCKVSNKALPAPIEKTISKAKGQPREPQVYTLPPSRDELTKNQVSLTCLVKGFYPSDIAVEWESNGQPENNYKTTPPVLDSDGSFFLYSKLTVDKSRWQQGNVFSCSVMHEALHNHYTQKSLSLSPGKKDPKFWVLVVVGGVLACYSLLVTVAFIIFWVRSKRSRLLHSDYMNMTPRRPGPTRKHYQAYAAARDFAAYRSLRVKFSRSADAPAYQQGQNQLYNELNLGRREEYDVLDKRRGRDPEMGGKPRRKNPQEGLYNELQKDKMAEAYSEIGMKGERRRGKGHDGLYQGLSTATKDTYDALHMQALPPR
modifications: A5CAR28
With B1, in assay [1] (24 h, 1:1 effector-to-target ratio, C4-2 or LNCaP), the CD69-positive cells result is listed as “about 70%”. Moreover, the “activation of Jurkat cells upon antigen-specific sensitization” value in assay [1] (CD69) is given as “massive activation”.

B2: A5: single-chain variable fragment generated by phage display from mAb 3/A12; SEQ ID NO:42 (protein, listed as Mus musculus)
scFv: DVKLVESGGGLVKPGESLKLSCIASGFTFSDYYMYWVRQTPEKRLEWVAIISDGGYYTYYSDIIKGRFTISRDNAKNNLYLQMSSLKSEDTAMYYCTRGFPLLRHGAMDYWGLGTSVTVSSGGGGSGGGGSGGGGSDIQMTQSPKFMSTSVGDRVSVTCKASQNVDTNVAWYQQKPGQSPKALIYSASYRYSDVPDRFTGSESGTDFTLTISNVQSEDLAEYFCQQYDSYPYTFGGGTKLEIK
modifications: murine scFv A5
Usually Kd stands for the concentration at which binding is half-saturated. Turning to B2, the equilibrium dissociation constant (Kd) in assay [2] is ~33 nM.
